Measurements published in the supplement of paper PMC10567573.

B1: APBB1IP (parent)
chain: SQVSMWDQRWQDHQPLLPITDVP

Variants of: B1
Experiment: protein stability index of a GFP-peptide fusion (GPS, HEK-293T) (PSI 1-6); higher = more stable
Details: c terminus: native
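Note: lentivirally expressed fusions sorted by FACS into six bins by GFP to DsRed ratio, PSI derived from sequencing read proportions per bin multiplied by bin number.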

Row | Variant | protein stability index
1 | SQVSMWDQRWQDHQPGLPITDVP [L16G] | 3.07
2 | SQVSMWDQRWQDHQPPLPITDVP [L16P] | 2.38
3 | SQVSMWDQRWQDHQPYLPITDVP [L16Y] | 3.06
4 | SQVSMWDQRWQDHQPKLPITDVP [L16K] | 3.08
5 | SQVSMWDQRWQDHQPVLPITDVP [L16V] | 2.54
6 | SQVSMWDQRWQDHQPQLPITDVP [L16Q] | 2.73
7 | SQVSMWDQRWQDHQPELPITDVP [L16E] | 3.38
8 | SQVSMWDQRWQDHQPSLPITDVP [L16S] | 2.98
9 | SQVSMWDQRWQDHQPALPITDVP [L16A] | 2.95
10 | SQVSMWDQRWQDHQPWLPITDVP [L16W] | 2.23
11 | SQVSMWDQRWQDHQPCLPITDVP [L16C] | 2.83
12 | SQVSMWDQRWQDHQPFLPITDVP [L16F] | 3.4
13 | SQVSMWDQRWQDHQPTLPITDVP [L16T] | 2.92
14 | SQVSMWDQRWQDHQPDLPITDVP [L16D] | 3.42
15 | SQVSMWDQRWQDHQPMLPITDVP [L16M] | 2.53
16 | SQVSMWDQRWQDHQPRLPITDVP [L16R] | 2.61
17 | SQVSMWDQRWQDHQPNLPITDVP [L16N] | 3.54
18 | SQVSMWDQRWQDHQPILPITDVP [L16I] | 2.55
19 | SQVSMWDQRWQDHQPLLPSTDVP [I19S] | 3
20 | SQVSMWDQRWQDHQPLLPYTDVP [I19Y] | 2.84
21 | SQVSMWDQRWQDHQPLLPLTDVP [I19L] | 2.03
22 | SQVSMWDQRWQDHQPLLPHTDVP [I19H] | 3.78
23 | SQVSMWDQRWQDHQPLLPDTDVP [I19D] | 4.17
24 | SQVSMWDQRWQDHQPLLPNTDVP [I19N] | 3.55
25 | SQVSMWDQRWQDHQPLLPMTDVP [I19M] | 2.62

Row | Variant | protein stability index
26 | SQVSMWDQRWQDHQPLLPWTDVP [I19W] | 1.36
27 | SQVSMWDQRWQDHQPLLPATDVP [I19A] | 2.67
28 | SQVSMWDQRWQDHQPLLPRTDVP [I19R] | 3.17
29 | SQVSMWDQRWQDHQPLLPFTDVP [I19F] | 2.79
30 | SQVSMWDQRWQDHQPLLPETDVP [I19E] | 3.36
31 | SQVSMWDQRWQDHQPLLPKTDVP [I19K] | 4.04
32 | SQVSMWDQRWQDHQPLLPGTDVP [I19G] | 3.67
33 | SQVSMWDQRWQDHQPLLPQTDVP [I19Q] | 2.87
34 | SQVSMWDQRWQDHQPLLPCTDVP [I19C] | 2.15
35 | SQVSMWDQRWQDHQPLLPTTDVP [I19T] | 3.03
36 | SQVSMWDQRWQDHQPLLPVTDVP [I19V] | 2.17
37 | SQVSMWDQRWQDHQPLLPPTDVP [I19P] | 3.04
38 | SQVSMWDQRWQDHQPLLPILDVP [T20L] | 1.92
39 | SQVSMWDQRWQDHQPLLPIDDVP [T20D] | 2.67
40 | SQVSMWDQRWQDHQPLLPIQDVP [T20Q] | 2.61
41 | SQVSMWDQRWQDHQPLLPICDVP [T20C] | 2.34
42 | SQVSMWDQRWQDHQPLLPIPDVP [T20P] | 2.7
43 | SQVSMWDQRWQDHQPLLPINDVP [T20N] | 3.23
44 | SQVSMWDQRWQDHQPLLPIMDVP [T20M] | 2.04
45 | SQVSMWDQRWQDHQPLLPISDVP [T20S] | 3.27
46 | SQVSMWDQRWQDHQPLLPIGDVP [T20G] | 1.77
47 | SQVSMWDQRWQDHQPLLPIVDVP [T20V] | 1.65
48 | SQVSMWDQRWQDHQPLLPIYDVP [T20Y] | 1.88
49 | SQVSMWDQRWQDHQPLLPIFDVP [T20F] | 2.58
50 | SQVSMWDQRWQDHQPLLPIHDVP [T20H] | 2.37

Row | Variant | protein stability index
51 | SQVSMWDQRWQDHQPLLPIRDVP [T20R] | 2.32
52 | SQVSMWDQRWQDHQPLLPIADVP [T20A] | 2.33
53 | SQVSMWDQRWQDHQPLLPIKDVP [T20K] | 3.24
54 | SQVSMWDQRWQDHQPLLPIIDVP [T20I] | 1.79
55 | SQVSMWDQRWQDHNPLLPITDVP [Q14N] | 2.89
56 | SQVSMWDQRWQDHFPLLPITDVP [Q14F] | 2.25
57 | SQVSMWDQRWQDHVPLLPITDVP [Q14V] | 2.23
58 | SQVSMWDQRWQDHGPLLPITDVP [Q14G] | 2.54
59 | SQVSMWDQRWQDHIPLLPITDVP [Q14I] | 2.09
60 | SQVSMWDQRWQDHCPLLPITDVP [Q14C] | 3.58
61 | SQVSMWDQRWQDHPPLLPITDVP [Q14P] | 2.74
62 | SQVSMWDQRWQDHDPLLPITDVP [Q14D] | 2.74
63 | SQVSMWDQRWQDHLPLLPITDVP [Q14L] | 2
64 | SQVSMWDQRWQDHMPLLPITDVP [Q14M] | 2.15
65 | SQVSMWDQRWQDHTPLLPITDVP [Q14T] | 2.48
66 | SQVSMWDQRWQDHRPLLPITDVP [Q14R] | 1.86
67 | SQVSMWDQRWQDHKPLLPITDVP [Q14K] | 2.28
68 | SQVSMWDQRWQDHAPLLPITDVP [Q14A] | 2.48
69 | SQVSMWDQRWQDHEPLLPITDVP [Q14E] | 3.31
70 | SQVSMWDQRWQDHSPLLPITDVP [Q14S] | 2.38
71 | SQVSMWDQRWQDHWPLLPITDVP [Q14W] | 2.23
72 | SQVSMWDQRWQDHYPLLPITDVP [Q14Y] | 2.06
73 | SQVSMWDQRWQDHHPLLPITDVP [Q14H] | 2.67
74 | SQVSMWDQRWQDHQPLLAITDVP [P18A] | 2.91
75 | SQVSMWDQRWQDHQPLLEITDVP [P18E] | 2.55

Row | Variant | protein stability index
76 | SQVSMWDQRWQDHQPLLDITDVP [P18D] | 3.42
77 | SQVSMWDQRWQDHQPLLRITDVP [P18R] | 2.29
78 | SQVSMWDQRWQDHQPLLCITDVP [P18C] | 1.82
79 | SQVSMWDQRWQDHQPLLLITDVP [P18L] | 1.41
80 | SQVSMWDQRWQDHQPLLSITDVP [P18S] | 2.12
81 | SQVSMWDQRWQDHQPLLFITDVP [P18F] | 1.36
82 | SQVSMWDQRWQDHQPLLGITDVP [P18G] | 1.76
83 | SQVSMWDQRWQDHQPLLNITDVP [P18N] | 2.56
84 | SQVSMWDQRWQDHQPLLYITDVP [P18Y] | 2.07
85 | SQVSMWDQRWQDHQPLLTITDVP [P18T] | 1.31
86 | SQVSMWDQRWQDHQPLLQITDVP [P18Q] | 1.71
87 | SQVSMWDQRWQDHQPLLWITDVP [P18W] | 1.28
88 | SQVSMWDQRWQDHQPLLKITDVP [P18K] | 2.1
89 | SQVSMWDQRWQDHQPLLMITDVP [P18M] | 1.71
90 | SQVSMWDQRWQDHQPLLHITDVP [P18H] | 2.38
91 | SQVSMWDQRWQDNQPLLPITDVP [H13N] | 2.85
92 | SQVSMWDQRWQDCQPLLPITDVP [H13C] | 2.24
93 | SQVSMWDQRWQDGQPLLPITDVP [H13G] | 3.03
94 | SQVSMWDQRWQDTQPLLPITDVP [H13T] | 2.94
95 | SQVSMWDQRWQDDQPLLPITDVP [H13D] | 3.17
96 | SQVSMWDQRWQDWQPLLPITDVP [H13W] | 1.5
97 | SQVSMWDQRWQDAQPLLPITDVP [H13A] | 3.06
